The source of these data is publication PMC3519778.

The test concerns the target CD26 on human monocyte-derived immature dendritic cells (human (endogenous in monocyte-derived iDCs)) (UniProt P27487).
Chain of UniProt P27487 (P27487 whole entry): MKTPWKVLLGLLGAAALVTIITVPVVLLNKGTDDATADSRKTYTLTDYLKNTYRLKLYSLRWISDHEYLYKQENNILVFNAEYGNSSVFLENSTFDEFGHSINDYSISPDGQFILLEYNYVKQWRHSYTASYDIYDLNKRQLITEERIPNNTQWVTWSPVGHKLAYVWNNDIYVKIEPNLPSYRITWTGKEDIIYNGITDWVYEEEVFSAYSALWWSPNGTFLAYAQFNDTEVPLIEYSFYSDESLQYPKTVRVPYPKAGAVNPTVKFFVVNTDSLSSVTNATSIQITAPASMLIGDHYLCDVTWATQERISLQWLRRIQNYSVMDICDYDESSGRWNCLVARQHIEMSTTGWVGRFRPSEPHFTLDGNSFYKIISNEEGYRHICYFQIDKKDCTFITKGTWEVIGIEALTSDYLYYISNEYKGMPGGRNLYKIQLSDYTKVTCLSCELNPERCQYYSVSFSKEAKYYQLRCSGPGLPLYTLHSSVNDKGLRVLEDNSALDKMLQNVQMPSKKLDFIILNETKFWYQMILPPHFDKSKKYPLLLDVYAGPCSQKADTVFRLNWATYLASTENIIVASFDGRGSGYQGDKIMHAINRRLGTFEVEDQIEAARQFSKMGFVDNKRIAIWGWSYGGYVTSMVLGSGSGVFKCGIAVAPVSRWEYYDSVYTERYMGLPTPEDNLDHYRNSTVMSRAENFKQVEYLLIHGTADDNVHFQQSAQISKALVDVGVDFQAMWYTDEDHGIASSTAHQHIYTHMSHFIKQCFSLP

B1: Adenosine deaminase (ADA, EC 3.5.4.4) from calf intestine (enzyme)
chain: MAQTPAFNKPKVELHVHLDGAIKPETILYYGRKRGIALPADTPEELQNIIGMDKPLSLPEFLAKFDYYMPAIAGCREAVKRIAYEFVEMKAKDGVVYVEVRYSPHLLANSKVEPIPWNQAEGDLTPDEVVSLVNQGLQEGERDFGVKVRSILCCMRHQPSWSSEVVELCKKYREQTVVAIDLAGDETIEGSSLFPGHVKAYAEAVKSGVHRTVHAGEVGSANVVKEAVDTLKTERLGHGYHTLEDATLYNRLRQENMHFEVCPWSSYLTGAWKPDTEHPVVRFKNDQVNYSLNTDDPLIFKSTLDTDYQMTKNEMGFTEEEFKRLNINAAKSSFLPEDEKKELLDLLYKAYGMPSPASAEQCL
B1 returned an ADA-mediated upregulation of CD80 on iDCs (flow cytometry, 48 h, 2 uM ADA) after pre-incubation of the cells with the anti-CD26 mAb TA5.9 (directed against the ADA-binding epitope on CD26) of 0.64 in-fold and an ADA-mediated upregulation of CD83 on iDCs (flow cytometry, 48 h, 2 uM ADA) after pre-incubation of the cells with the anti-CD26 mAb TA5.9 (directed against the ADA-binding epitope on CD26) of 0.46 in-fold.
